T1: FcγRIIa H (FcγRIIa type H, His at position 131), extracellular domain with C-terminal His tag (human, UniProt P12318 34-217)
T1 construct: extracellular domain; also called FcgRIIa H; 2aH
T1 sequence (looked up): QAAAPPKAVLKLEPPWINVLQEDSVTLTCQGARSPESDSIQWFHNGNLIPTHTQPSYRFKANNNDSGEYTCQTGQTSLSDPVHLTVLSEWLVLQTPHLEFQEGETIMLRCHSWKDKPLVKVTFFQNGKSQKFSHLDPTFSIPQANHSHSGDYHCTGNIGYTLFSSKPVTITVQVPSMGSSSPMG

B1: GpH7-B3 variant A330_12R/GpL16-k0 (antibody, human IgG1, kappa)
heavy: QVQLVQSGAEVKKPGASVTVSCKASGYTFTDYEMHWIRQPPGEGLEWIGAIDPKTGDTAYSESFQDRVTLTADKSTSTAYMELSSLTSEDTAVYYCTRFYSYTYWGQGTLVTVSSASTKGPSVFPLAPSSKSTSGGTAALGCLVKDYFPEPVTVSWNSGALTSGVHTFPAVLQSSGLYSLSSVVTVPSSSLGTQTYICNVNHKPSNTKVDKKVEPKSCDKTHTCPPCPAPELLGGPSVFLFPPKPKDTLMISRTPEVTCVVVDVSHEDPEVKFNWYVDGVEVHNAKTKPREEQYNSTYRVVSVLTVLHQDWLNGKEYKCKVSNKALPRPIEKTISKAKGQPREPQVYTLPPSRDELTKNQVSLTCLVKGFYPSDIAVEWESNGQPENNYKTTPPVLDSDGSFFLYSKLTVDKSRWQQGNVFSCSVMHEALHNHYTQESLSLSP
light: DIVMTQSPLSLPVTPGEPASISCQASESLVHSNRNTYLHWYLQKPGQSPQLLIYKVSNRFSGVPDRFSGSGSGTDFTLKISRVEAEDVGVYYCSQNTHVPPTFGQGTKVEIERTVAAPSVFIFPPSDEQLKSGTASVVCLLNNFYPREAKVQWKVDNALQSGNSQESVTEQDSKDSTYSLSSTLTLSKADYEKHKVYACEVTHQGLSSPVTKSFNRGEC
notes: both H chains mutated; also called Ho Ab
B2: GpH7-B3 variant I332_09D/GpL16-k0 (antibody, human IgG1, kappa)
heavy: not shown
light: B1 light
notes: as for B1
B3: GpH7-B3 variant G236_10E/GpL16-k0 (antibody, human IgG1, kappa)
heavy: not shown
light: B1 light
notes: as for B1
B4: GpH7-B3 variant L235_20W/GpL16-k0 (antibody, human IgG1, kappa)
heavy: not shown
light: B1 light
notes: as for B1
B5: GpH7-B3 variant K334_03V/GpL16-k0 (antibody, human IgG1, kappa)
heavy: not shown
light: B1 light
notes: as for B1
B6: GpH7-B3 variant K326_14T/GpL16-k0 (antibody, human IgG1, kappa)
heavy: not shown
light: B1 light
notes: as for B1
B7: GpH7-B3 variant T335_07I/GpL16-k0 (antibody, human IgG1, kappa)
heavy: not shown
light: B1 light
notes: as for B1
B8: GpH7-B3 variant I332_14T/GpL16-k0 (antibody, human IgG1, kappa)
heavy: not shown
light: B1 light
notes: as for B1
B9: GpH7-B3 variant S324_06M/GpL16-k0 (antibody, human IgG1, kappa)
heavy: not shown
light: B1 light
notes: as for B1
B10: GpH7-B3 variant H268_18N/GpL16-k0 (antibody, human IgG1, kappa)
heavy: not shown
light: B1 light
notes: as for B1
B11: GpH7-B3 variant K334_15Y/GpL16-k0 (antibody, human IgG1, kappa)
heavy: not shown
light: B1 light
notes: as for B1
B12: GpH7-B3 variant H268_09D/GpL16-k0 (antibody, human IgG1, kappa)
heavy: not shown
light: B1 light
notes: as for B1
B13: GpH7-B3 variant K334_04F/GpL16-k0 (antibody, human IgG1, kappa)
heavy: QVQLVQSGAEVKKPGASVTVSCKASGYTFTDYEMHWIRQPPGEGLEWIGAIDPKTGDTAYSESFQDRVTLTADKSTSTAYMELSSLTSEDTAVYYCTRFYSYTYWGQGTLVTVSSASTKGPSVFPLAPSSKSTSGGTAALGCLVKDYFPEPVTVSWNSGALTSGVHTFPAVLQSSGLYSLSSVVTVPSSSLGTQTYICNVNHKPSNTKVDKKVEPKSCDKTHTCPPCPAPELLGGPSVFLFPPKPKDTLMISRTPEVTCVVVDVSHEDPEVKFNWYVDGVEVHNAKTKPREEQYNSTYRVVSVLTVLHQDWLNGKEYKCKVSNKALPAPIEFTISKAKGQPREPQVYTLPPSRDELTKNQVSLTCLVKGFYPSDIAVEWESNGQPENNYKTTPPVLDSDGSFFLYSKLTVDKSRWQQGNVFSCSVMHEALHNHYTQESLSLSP
light: B1 light
notes: as for B1
B14: GpH7-B3 variant I332_15Y/GpL16-k0 (antibody, human IgG1, kappa)
heavy: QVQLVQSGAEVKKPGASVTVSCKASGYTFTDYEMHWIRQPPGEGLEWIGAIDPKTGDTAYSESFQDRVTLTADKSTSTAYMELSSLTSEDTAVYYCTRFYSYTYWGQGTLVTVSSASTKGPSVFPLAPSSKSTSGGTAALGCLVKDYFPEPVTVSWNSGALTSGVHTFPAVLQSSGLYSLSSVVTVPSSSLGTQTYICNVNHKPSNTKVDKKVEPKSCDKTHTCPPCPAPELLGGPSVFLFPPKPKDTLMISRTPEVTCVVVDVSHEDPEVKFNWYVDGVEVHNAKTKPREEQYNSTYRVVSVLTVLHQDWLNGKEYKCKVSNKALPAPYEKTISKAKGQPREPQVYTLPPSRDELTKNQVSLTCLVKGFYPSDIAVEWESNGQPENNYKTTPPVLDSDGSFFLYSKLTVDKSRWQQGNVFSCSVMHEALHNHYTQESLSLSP
light: B1 light
notes: as for B1
B15: GpH7-B3 variant K326_19Q/GpL16-k0 (antibody, human IgG1, kappa)
heavy: not shown
light: B1 light
notes: as for B1
B16: GpH7-B3 variant T335_10E/GpL16-k0 (antibody, human IgG1, kappa)
heavy: not shown
light: B1 light
notes: as for B1
B17: GpH7-B3 variant I332_03V/GpL16-k0 (antibody, human IgG1, kappa)
heavy: not shown
light: B1 light
notes: as for B1
B18: GpH7-B3 variant H268_10E/GpL16-k0 (antibody, human IgG1, kappa)
heavy: not shown
light: B1 light
notes: as for B1
B19: GpH7-B3 variant I332_16H/GpL16-k0 (antibody, human IgG1, kappa)
heavy: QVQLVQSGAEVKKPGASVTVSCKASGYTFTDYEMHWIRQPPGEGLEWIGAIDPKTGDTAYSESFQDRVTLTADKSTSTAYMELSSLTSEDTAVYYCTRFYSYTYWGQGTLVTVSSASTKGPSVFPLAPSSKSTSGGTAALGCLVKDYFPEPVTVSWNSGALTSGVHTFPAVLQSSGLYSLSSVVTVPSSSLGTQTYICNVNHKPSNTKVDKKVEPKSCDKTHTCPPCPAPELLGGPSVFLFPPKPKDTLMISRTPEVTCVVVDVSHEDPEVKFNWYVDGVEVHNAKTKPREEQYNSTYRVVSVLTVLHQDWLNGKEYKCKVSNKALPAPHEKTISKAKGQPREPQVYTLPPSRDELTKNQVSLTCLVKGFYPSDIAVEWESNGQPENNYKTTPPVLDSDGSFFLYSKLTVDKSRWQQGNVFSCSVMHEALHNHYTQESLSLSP
light: B1 light
notes: as for B1
B20: GpH7-B3 variant S337_14T/GpL16-k0 (antibody, human IgG1, kappa)
heavy: not shown
light: B1 light
notes: as for B1
B21: GpH7-B3 variant S267_02A/GpL16-k0 (antibody, human IgG1, kappa)
heavy: not shown
light: B1 light
notes: as for B1
B22: GpH7-B3 variant S324_02A/GpL16-k0 (antibody, human IgG1, kappa)
heavy: not shown
light: B1 light
notes: as for B1
B23: GpH7-B3 variant P271_01G/GpL16-k0 (antibody, human IgG1, kappa)
heavy: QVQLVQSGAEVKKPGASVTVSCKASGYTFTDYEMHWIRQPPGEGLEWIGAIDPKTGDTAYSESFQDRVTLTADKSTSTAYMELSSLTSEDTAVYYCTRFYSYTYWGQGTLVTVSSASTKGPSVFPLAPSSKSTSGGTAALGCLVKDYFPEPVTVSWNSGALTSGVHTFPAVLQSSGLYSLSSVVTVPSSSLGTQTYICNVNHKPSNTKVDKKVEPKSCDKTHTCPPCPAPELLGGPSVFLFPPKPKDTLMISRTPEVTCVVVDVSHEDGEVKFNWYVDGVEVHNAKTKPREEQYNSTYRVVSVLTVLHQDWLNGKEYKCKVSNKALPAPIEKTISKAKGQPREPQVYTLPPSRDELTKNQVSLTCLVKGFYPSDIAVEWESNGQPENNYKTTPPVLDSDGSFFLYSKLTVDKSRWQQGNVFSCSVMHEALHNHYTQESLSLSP
light: B1 light
notes: as for B1
B24: GpH7-B3 variant T335_13S/GpL16-k0 (antibody, human IgG1, kappa)
heavy: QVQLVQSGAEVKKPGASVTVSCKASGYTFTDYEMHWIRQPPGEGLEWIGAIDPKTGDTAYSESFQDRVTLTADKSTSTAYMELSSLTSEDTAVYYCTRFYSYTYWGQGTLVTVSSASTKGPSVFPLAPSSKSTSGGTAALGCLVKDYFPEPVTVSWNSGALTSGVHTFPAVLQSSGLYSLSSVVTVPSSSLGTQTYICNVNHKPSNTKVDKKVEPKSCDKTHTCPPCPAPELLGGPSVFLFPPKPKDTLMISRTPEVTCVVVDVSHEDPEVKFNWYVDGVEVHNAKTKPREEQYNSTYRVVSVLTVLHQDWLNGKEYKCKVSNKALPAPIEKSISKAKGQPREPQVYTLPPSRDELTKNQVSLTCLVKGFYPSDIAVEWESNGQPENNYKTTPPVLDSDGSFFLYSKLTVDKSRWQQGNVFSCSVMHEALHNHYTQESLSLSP
light: B1 light
notes: as for B1
B25: GpH7-B3 variant S337_09D/GpL16-k0 (antibody, human IgG1, kappa)
heavy: not shown
light: B1 light
notes: as for B1
B26: GpH7-B3 variant G236_07I/GpL16-k0 (antibody, human IgG1, kappa)
heavy: not shown
light: B1 light
notes: as for B1
B27: GpH7-B3 variant L328_02A/GpL16-k0 (antibody, human IgG1, kappa)
heavy: not shown
light: B1 light
notes: as for B1
B28: GpH7-B3 variant T335_01G/GpL16-k0 (antibody, human IgG1, kappa)
heavy: not shown
light: B1 light
notes: as for B1
B29: GpH7-B3 variant S324_20W/GpL16-k0 (antibody, human IgG1, kappa)
heavy: not shown
light: B1 light
notes: as for B1
B30: GpH7-B3 variant S324_10E/GpL16-k0 (antibody, human IgG1, kappa)
heavy: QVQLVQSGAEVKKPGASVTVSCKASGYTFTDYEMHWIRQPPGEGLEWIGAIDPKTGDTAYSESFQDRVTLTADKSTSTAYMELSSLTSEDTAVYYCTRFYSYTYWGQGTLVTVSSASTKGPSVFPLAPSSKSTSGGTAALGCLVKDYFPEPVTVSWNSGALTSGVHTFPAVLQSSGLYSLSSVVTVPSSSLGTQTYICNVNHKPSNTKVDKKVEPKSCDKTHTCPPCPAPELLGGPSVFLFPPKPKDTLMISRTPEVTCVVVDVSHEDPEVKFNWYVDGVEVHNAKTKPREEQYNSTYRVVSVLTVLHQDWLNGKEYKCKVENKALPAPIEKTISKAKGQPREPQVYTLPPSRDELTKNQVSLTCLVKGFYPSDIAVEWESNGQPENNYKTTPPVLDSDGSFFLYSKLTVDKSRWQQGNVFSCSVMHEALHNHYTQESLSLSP
light: B1 light
notes: as for B1
B31: GpH7-B3 variant H268_13S/GpL16-k0 (antibody, human IgG1, kappa)
heavy: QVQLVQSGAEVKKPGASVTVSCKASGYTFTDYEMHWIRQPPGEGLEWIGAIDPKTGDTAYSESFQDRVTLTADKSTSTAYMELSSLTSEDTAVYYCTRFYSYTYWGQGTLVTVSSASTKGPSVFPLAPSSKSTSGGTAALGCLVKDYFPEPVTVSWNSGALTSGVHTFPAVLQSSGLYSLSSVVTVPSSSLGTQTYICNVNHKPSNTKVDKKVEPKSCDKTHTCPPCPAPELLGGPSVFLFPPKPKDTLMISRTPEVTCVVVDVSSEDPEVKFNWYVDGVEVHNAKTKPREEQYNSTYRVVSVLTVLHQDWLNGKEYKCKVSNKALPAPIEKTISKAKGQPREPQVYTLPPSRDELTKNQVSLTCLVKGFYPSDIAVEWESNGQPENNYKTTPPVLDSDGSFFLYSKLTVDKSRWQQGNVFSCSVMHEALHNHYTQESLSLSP
light: B1 light
notes: as for B1
B32: GpH7-B3 variant K326_10E/GpL16-k0 (antibody, human IgG1, kappa)
heavy: not shown
light: B1 light
notes: as for B1
B33: GpH7-B3 variant I332_19Q/GpL16-k0 (antibody, human IgG1, kappa)
heavy: not shown
light: B1 light
notes: as for B1
B34: GpH7-B3 variant Q295_07I/GpL16-k0 (antibody, human IgG1, kappa)
heavy: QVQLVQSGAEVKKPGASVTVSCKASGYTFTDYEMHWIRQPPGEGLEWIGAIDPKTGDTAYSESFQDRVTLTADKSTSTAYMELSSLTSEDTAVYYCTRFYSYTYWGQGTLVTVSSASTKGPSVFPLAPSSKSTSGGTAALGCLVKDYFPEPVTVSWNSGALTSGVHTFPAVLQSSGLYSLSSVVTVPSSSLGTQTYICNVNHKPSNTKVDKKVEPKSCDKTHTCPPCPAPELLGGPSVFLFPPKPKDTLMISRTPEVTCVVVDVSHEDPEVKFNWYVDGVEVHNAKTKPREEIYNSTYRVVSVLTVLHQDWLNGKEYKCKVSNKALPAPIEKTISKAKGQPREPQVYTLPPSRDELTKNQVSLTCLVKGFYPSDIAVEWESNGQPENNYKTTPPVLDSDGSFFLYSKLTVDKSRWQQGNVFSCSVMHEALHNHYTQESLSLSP
light: B1 light
notes: as for B1
B35: GpH7-B3 variant I332_13S/GpL16-k0 (antibody, human IgG1, kappa)
heavy: not shown
light: B1 light
notes: as for B1
B36: GpH7-B3 variant S239_09D/GpL16-k0 (antibody, human IgG1, kappa)
heavy: not shown
light: B1 light
notes: as for B1
B37: GpH7-B3 variant K326_06M/GpL16-k0 (antibody, human IgG1, kappa)
heavy: not shown
light: B1 light
notes: as for B1
B38: GpH7-B3 variant L328_13S/GpL16-k0 (antibody, human IgG1, kappa)
heavy: not shown
light: B1 light
notes: as for B1
B39: GpH7-B3 variant K334_08L/GpL16-k0 (antibody, human IgG1, kappa)
heavy: not shown
light: B1 light
notes: as for B1
B40: GpH7-B3 variant S337_16H/GpL16-k0 (antibody, human IgG1, kappa)
heavy: not shown
light: B1 light
notes: as for B1
B41: GpH7-B3 variant I332_10E/GpL16-k0 (antibody, human IgG1, kappa)
heavy: not shown
light: B1 light
notes: as for B1
B42: GpH7-B3 variant I336_06M/GpL16-k0 (antibody, human IgG1, kappa)
heavy: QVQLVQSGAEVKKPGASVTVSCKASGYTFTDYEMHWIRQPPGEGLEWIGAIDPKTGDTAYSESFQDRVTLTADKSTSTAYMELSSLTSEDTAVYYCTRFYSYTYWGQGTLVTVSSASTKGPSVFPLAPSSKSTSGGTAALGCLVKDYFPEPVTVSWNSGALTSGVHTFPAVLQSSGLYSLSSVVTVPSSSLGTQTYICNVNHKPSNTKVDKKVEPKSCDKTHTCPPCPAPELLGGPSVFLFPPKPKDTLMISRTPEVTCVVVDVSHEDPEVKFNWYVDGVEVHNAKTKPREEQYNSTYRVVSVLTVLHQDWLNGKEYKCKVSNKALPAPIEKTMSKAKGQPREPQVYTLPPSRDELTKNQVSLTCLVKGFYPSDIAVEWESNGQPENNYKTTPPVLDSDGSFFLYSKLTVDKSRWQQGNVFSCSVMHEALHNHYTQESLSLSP
light: B1 light
notes: as for B1
B43: GpH7-B3 variant K334_07[ (read as K334_07I)/GpL16-k0 (antibody, human IgG1, kappa)
heavy: not shown
light: B1 light
notes: as for B1
B44: GpH7-B3 variant S324_09D/GpL16-k0 (antibody, human IgG1, kappa)
heavy: not shown
light: B1 light
notes: as for B1
B45: GpH7-B3 variant I332_04F/GpL16-k0 (antibody, human IgG1, kappa)
heavy: not shown
light: B1 light
notes: as for B1
B46: GpH7-B3 variant S337_10E/GpL16-k0 (antibody, human IgG1, kappa)
heavy: not shown
light: B1 light
notes: as for B1
B47: GpH7-B3 variant K334_14T/GpL16-k0 (antibody, human IgG1, kappa)
heavy: not shown
light: B1 light
notes: as for B1
B48: GpH7-B3 variant L328_14T/GpL16-k0 (antibody, human IgG1, kappa)
heavy: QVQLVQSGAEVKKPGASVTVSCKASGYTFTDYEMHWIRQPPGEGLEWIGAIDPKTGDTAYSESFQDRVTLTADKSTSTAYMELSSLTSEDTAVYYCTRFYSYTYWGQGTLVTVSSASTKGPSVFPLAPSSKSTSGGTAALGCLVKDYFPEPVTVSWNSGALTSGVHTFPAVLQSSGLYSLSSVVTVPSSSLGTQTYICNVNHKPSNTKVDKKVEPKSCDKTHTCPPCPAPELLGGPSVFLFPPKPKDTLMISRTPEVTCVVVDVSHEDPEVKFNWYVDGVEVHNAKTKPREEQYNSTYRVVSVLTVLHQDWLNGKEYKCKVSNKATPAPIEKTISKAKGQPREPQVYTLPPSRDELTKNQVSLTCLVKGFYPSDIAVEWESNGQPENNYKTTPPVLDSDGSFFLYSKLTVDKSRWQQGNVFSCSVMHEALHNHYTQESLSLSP
light: B1 light
notes: as for B1
B49: GpH7-B3 variant I332_18N/GpL16-k0 (antibody, human IgG1, kappa)
heavy: not shown
light: B1 light
notes: as for B1
B50: GpH7-B3 variant G236_03V/GpL16-k0 (antibody, human IgG1, kappa)
heavy: not shown
light: B1 light
notes: as for B1
B51: GpH7-B3 variant Q295_05P/GpL16-k0 (antibody, human IgG1, kappa)
heavy: not shown
light: B1 light
notes: as for B1
B52: GpH7-B3 variant I332_06M/GpL16-k0 (antibody, human IgG1, kappa)
heavy: not shown
light: B1 light
notes: as for B1
B53: GpH7-B3 variant K334_16H/GpL16-k0 (antibody, human IgG1, kappa)
heavy: not shown
light: B1 light
notes: as for B1
B54: GpH7-B3 variant I336_08L/GpL16-k0 (antibody, human IgG1, kappa)
heavy: not shown
light: B1 light
notes: as for B1
B55: GpH7-B3 variant L328_06M/GpL16-k0 (antibody, human IgG1, kappa)
heavy: not shown
light: B1 light
notes: as for B1
B56: GpH7-B3 variant K326_09D/GpL16-k0 (antibody, human IgG1, kappa)
heavy: not shown
light: B1 light
notes: as for B1

Molecular target: T1, FcγRIIa H (FcγRIIa type H, His at …)
Experiment: SPR Biacore, relative binding, GpH7-B3/GpL16-k0 (HoCon Ab)=100
Procedure: Analysis of interaction between objective antibody and the FcγR was carried out using Biacore T100 (GE Healthcare). HBS-EP+ (GE Healthcare) was used as the running buffer, and the measurement temperature was set to 25° C. Chips produced by immobilizing the antigen peptide by the amine coupling method to a Series S Sencor Chip CM5 (GE Healthcare), or alternatively, chips produced by allowing preliminarily biotinylated antigen peptides to interact with and immobilize onto a Series S Sensor Chip SA (certified) (GE Healthcare) were used. Antibodies of interest were captured onto an antigen peptide-immobilized chip, and allowed to interact to each FcγR diluted with running buffer. To regenerate and repeatedly use the chip, the antibodies captured on the chip were washed off by reacting 10 mM glycine-HCl, pH 1.5.

Row | Ho/Con_2aH | Binder
1 | 110 % of control | B1
2 | 130 % of control | B2
3 | 122 % of control | B3
4 | 112 % of control | B4
5 | 111 % of control | B5
6 | 118 % of control | B6
7 | 105 % of control | B7
8 | 125 % of control | B8
9 | 123 % of control | B9
10 | 110 % of control | B10
11 | 110 % of control | B11
12 | 136 % of control | B12
13 | 103 % of control | B13
14 | 126 % of control | B14
15 | 100 % of control | B15
16 | 105 % of control | B16
17 | 106 % of control | B17
18 | 126 % of control | B18
19 | 119 % of control | B19

Row | Ho/Con_2aH | Binder
20 | 105 % of control | B20
21 | 120 % of control | B21
22 | 102 % of control | B22
23 | 110 % of control | B23
24 | 101 % of control | B24
25 | 107 % of control | B25
26 | 101 % of control | B26
27 | 134 % of control | B27
28 | 101 % of control | B28
29 | 108 % of control | B29
30 | 104 % of control | B30
31 | 114 % of control | B31
32 | 101 % of control | B32
33 | 114 % of control | B33
34 | 108 % of control | B34
35 | 121 % of control | B35
36 | 112 % of control | B36
37 | 101 % of control | B37
38 | 131 % of control | B38

Row | Ho/Con_2aH | Binder
39 | 103 % of control | B39
40 | 102 % of control | B40
41 | 117 % of control | B41
42 | 100 % of control | B42
43 | 116 % of control | B43
44 | 113 % of control | B44
45 | 111 % of control | B45
46 | 101 % of control | B46
47 | 105 % of control | B47
48 | 110 % of control | B48
49 | 118 % of control | B49
50 | 111 % of control | B50
51 | 106 % of control | B51
52 | 114 % of control | B52
53 | 101 % of control | B53
54 | 101 % of control | B54
55 | 100 % of control | B55
56 | 113 % of control | B56

Source: patent US20150344570A1 (published 2015)
